This passage reports Clouding point results from US7495116B2, “Phospholipid derivative” (NOF Corporation, priority 2002, dated 2009).

The nature of this data set: Determination of salt tolerant effect (clouding point, evaluation as surfactant). The format is physicochemical. Conditions: 1 weight % solution in 5 weight % aqueous sodium sulfate. The procedure: As a result of the measurement, the clouding point was not detectable even when the temperature was raised up to 80° C.

For the substance “monomethylpolyoxyethylenecarbamyl (Molecular Weight: 2000) distearoylphosphatidylethanolamine [Comparative Synthesis Example 1]”, the Clouding point was 50.0 °C.
